According to paper PMC10397247:

Assays:
4H2750-AA = target: T1, 4H2750-AA; experiment: two-hybrid library CCmax;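 also: natural log of median RNA to DNA barcode read ratio; higher means stronger binding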
T1 chain: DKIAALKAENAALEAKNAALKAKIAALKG

P1-AA-1HGe-W = target: T2, P1-AA-1HGe-W; experiment: two-hybrid library CCmax; settings: mean of both orientations;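 also: natural log of median RNA to DNA barcode read ratio; higher means stronger binding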
T2 chain: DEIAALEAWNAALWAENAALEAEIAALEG

4H465-AA = target: T3, 4H465-AA; experiment: two-hybrid library CCmax; settings: mean of both orientations;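 also: natural log of median RNA to DNA barcode read ratio; higher means stronger binding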
T3 chain: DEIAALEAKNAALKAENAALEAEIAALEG

P1-AA-1HGe-H = target: T4, P1-AA-1HGe-H; experiment: two-hybrid library CCmax;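 also: natural log of median RNA to DNA barcode read ratio; higher means stronger binding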
T4 chain: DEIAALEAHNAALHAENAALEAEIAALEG

P1-AA = target: T5, P1-AA; experiment: two-hybrid library CCmax; settings: mean of both orientations;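 also: natural log of median RNA to DNA barcode read ratio; higher means stronger binding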
T5 chain: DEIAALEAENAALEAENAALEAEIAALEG

4H3782-AA = target: T6, 4H3782-AA; experiment: two-hybrid library CCmax; settings: mean of both orientations;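 also: natural log of median RNA to DNA barcode read ratio; higher means stronger binding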
T6 chain: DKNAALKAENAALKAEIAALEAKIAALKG

P1-AA-1HGe-R = target: T7, P1-AA-1HGe-R; experiment: two-hybrid library CCmax; settings: mean of both orientations
T7 chain: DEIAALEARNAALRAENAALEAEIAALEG

4H486-AA = target: T8, 4H486-AA; experiment: two-hybrid library CCmax; settings: mean of both orientations
T8 chain: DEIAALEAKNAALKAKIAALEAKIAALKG

P1-AA-1HGe-A = target: T9, P1-AA-1HGe-A; experiment: two-hybrid library CCmax; settings: mean of both orientations
T9 chain: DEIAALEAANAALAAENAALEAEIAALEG

4H895-AA = target: T10, 4H895-AA; experiment: two-hybrid library CCmax; settings: mean of both orientations
T10 chain: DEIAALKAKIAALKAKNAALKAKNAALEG

P1-AA-1HGe-M = target: T11, P1-AA-1HGe-M; experiment: two-hybrid library CCmax; settings: mean of both orientations
T11 chain: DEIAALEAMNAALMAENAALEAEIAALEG

4H_APH = target: T12, 4H_APH; experiment: two-hybrid library CCmax; settings: mean of both orientations
T12 chain: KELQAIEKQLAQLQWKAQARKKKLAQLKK

4H3020-AA = target: T13, 4H3020-AA; experiment: two-hybrid library CCmax; settings: mean of both orientations
T13 chain: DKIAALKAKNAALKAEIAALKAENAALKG

4H_GCN4 = experiment: two-hybrid library CCmax; settings: mean of both orientations
4H535-AA = target: T14, 4H535-AA; experiment: two-hybrid library CCmax; settings: mean of both orientations
T14 chain: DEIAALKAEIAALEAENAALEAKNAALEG

4H_BCR = target: T15, 4H_BCR; experiment: two-hybrid library CCmax; settings: mean of both orientations
T15 chain: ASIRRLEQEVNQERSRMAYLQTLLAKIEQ

4H58-AA = target: T16, 4H58-AA; experiment: two-hybrid library CCmax; settings: mean of both orientations
T16 chain: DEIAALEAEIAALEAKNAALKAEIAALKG

P1-AA-1HGe-S = target: T17, P1-AA-1HGe-S; experiment: two-hybrid library CCmax; settings: mean of both orientations
T17 chain: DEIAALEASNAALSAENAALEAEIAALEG

4H2898-AA = target: T18, 4H2898-AA; experiment: two-hybrid library CCmax; settings: mean of both orientations
T18 chain: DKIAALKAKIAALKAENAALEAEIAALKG

4H355-AA = target: T19, 4H355-AA; experiment: two-hybrid library CCmax; settings: mean of both orientations
T19 chain: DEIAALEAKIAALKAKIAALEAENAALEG

4H3705-AA = target: T20, 4H3705-AA; experiment: two-hybrid library CCmax; settings: mean of both orientations
T20 chain: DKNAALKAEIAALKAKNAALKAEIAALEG

P1-AA-1HGe-T = target: T21, P1-AA-1HGe-T; experiment: two-hybrid library CCmax; settings: mean of both orientations
T21 chain: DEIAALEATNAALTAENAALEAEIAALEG

P1-AA-1HGe-Y = target: T22, P1-AA-1HGe-Y; experiment: two-hybrid library CCmax; settings: mean of both orientations
T22 chain: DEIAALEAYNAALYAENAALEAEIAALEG

P1-AA-1HGe-Q = target: T23, P1-AA-1HGe-Q; experiment: two-hybrid library CCmax; settings: mean of both orientations
T23 chain: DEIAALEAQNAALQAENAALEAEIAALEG

GCN2_T = experiment: two-hybrid library CCmax
P1-AA-1HGe-D = target: T24, P1-AA-1HGe-D; experiment: two-hybrid library CCmax; settings: mean of both orientations
T24 chain: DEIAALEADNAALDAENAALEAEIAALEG

4H3365-AA = target: T25, 4H3365-AA; experiment: two-hybrid library CCmax; settings: mean of both orientations
T25 chain: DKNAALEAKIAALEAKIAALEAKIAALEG

4H3651-AA = target: T26, 4H3651-AA; experiment: two-hybrid library CCmax; settings: mean of both orientations
T26 chain: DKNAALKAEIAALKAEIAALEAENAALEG

4H1845-bH = target: T27, 4H1845-bH; experiment: two-hybrid library CCNG1
T27 chain: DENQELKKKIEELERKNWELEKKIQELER

4H3189-bH = target: T28, 4H3189-bH; experiment: two-hybrid library CCNG1
T28 chain: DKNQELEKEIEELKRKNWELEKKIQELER

4H3907-bH = target: T29, 4H3907-bH; experiment: two-hybrid library CCNG1
T29 chain: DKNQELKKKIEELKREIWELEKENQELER

4H918-bH = target: T30, 4H918-bH; experiment: two-hybrid library CCNG1
T30 chain: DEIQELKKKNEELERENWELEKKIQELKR

4H370-bH = target: T31, 4H370-bH; experiment: two-hybrid library CCNG1
T31 chain: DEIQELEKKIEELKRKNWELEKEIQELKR

4H568-bH = target: T32, 4H568-bH; experiment: two-hybrid library CCNG1
T32 chain: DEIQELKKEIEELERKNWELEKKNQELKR

P8A-bS = target: T33, P8A-bS; experiment: two-hybrid library CCNG1
T33 chain: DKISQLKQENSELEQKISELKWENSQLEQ

4H687-bH = target: T34, 4H687-bH; experiment: two-hybrid library CCNG1
T34 chain: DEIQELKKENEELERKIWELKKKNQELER

4H2697-bH = target: T35, 4H2697-bH; experiment: two-hybrid library CCNG1
T35 chain: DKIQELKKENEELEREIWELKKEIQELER

4H2667-bH = target: T36, 4H2667-bH; experiment: two-hybrid library CCNG1
T36 chain: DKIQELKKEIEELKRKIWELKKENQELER

4H331-bH = target: T37, 4H331-bH; experiment: two-hybrid library CCNG1
T37 chain: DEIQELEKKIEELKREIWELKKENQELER

4H1369-bH = target: T38, 4H1369-bH; experiment: two-hybrid library CCNG1
T38 chain: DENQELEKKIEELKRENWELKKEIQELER

4H4001-bH = target: T39, 4H4001-bH; experiment: two-hybrid library CCNG1
T39 chain: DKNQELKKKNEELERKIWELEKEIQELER

4H3592-bH = target: T40, 4H3592-bH; experiment: two-hybrid library CCNG1
T40 chain: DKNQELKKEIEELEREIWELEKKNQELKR

4H1446-bH = target: T41, 4H1446-bH; experiment: two-hybrid library CCNG1
T41 chain: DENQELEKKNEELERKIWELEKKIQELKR

4H1387-bH = target: T42, 4H1387-bH; experiment: two-hybrid library CCNG1
T42 chain: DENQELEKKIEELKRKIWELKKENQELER

4H1406-bH = target: T43, 4H1406-bH; experiment: two-hybrid library CCNG1
T43 chain: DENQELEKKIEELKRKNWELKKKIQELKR

4H2610-bH = target: T44, 4H2610-bH; experiment: two-hybrid library CCNG1
T44 chain: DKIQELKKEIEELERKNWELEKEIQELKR

4H967-bH = target: T45, 4H967-bH; experiment: two-hybrid library CCNG1
T45 chain: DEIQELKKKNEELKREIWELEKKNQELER

4H3601-bH = target: T46, 4H3601-bH; experiment: two-hybrid library CCNG1
T46 chain: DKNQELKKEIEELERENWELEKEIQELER

4H72-bH = target: T47, 4H72-bH; experiment: two-hybrid library CCNG1
T47 chain: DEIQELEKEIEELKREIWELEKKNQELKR

4H3606-bH = target: T48, 4H3606-bH; experiment: two-hybrid library CCNG1
T48 chain: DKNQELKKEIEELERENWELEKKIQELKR

4H3843-bH = target: T49, 4H3843-bH; experiment: two-hybrid library CCNG1
T49 chain: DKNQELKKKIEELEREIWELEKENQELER

4H953-bH = target: T50, 4H953-bH; experiment: two-hybrid library CCNG1
T50 chain: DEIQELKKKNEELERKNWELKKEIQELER

4H797-bH = target: T51, 4H797-bH; experiment: two-hybrid library CCNG1
T51 chain: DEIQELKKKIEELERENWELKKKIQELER

4H1193-bH = target: T52, 4H1193-bH; experiment: two-hybrid library CCNG1
T52 chain: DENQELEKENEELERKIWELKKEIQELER

4H883-bH = target: T53, 4H883-bH; experiment: two-hybrid library CCNG1
T53 chain: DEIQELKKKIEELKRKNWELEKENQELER

4H2576-bH = target: T54, 4H2576-bH; experiment: two-hybrid library CCNG1
T54 chain: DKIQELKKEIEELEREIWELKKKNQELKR

4H3782-bH = target: T55, 4H3782-bH; experiment: two-hybrid library CCNG1
T55 chain: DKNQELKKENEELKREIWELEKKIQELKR

4H4038-bH = target: T56, 4H4038-bH; experiment: two-hybrid library CCNG1
T56 chain: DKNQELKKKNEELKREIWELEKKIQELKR

4H462-bH = target: T57, 4H462-bH; experiment: two-hybrid library CCNG1
T57 chain: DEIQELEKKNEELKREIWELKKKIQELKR

4H607-bH = target: T58, 4H607-bH; experiment: two-hybrid library CCNG1
T58 chain: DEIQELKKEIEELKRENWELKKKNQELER

4H1328-bH = target: T59, 4H1328-bH; experiment: two-hybrid library CCNG1
T59 chain: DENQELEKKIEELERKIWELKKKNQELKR

Core_ININ-es_KEEK = target: T60, Core_ININ-es_KEEK; experiment: two-hybrid library CCmax; settings: mean of both orientations
T60 chain: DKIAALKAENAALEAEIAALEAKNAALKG

Chain of 4H_GCN4 (chain, as listed by the source): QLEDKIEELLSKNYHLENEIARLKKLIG

## DKIAALKAENAALEAKNAALKAKIAALKG [4H2750-AA]
4H2750-AA
  interaction score: -1.55
P1-AA-1HGe-W
  interaction score: 2.15
4H465-AA
  interaction score: 2.28
P1-AA-1HGe-H
  interaction score: 1.92
P1-AA
  interaction score: 1.56
4H3782-AA
  interaction score: -0.13
P1-AA-1HGe-R
  interaction score: 2.26
4H486-AA
  interaction score: 1.13
P1-AA-1HGe-A
  interaction score: 2.11
4H895-AA
  interaction score: -1.79
P1-AA-1HGe-M
  interaction score: 2.44
4H_APH
  interaction score: -2.38
4H3020-AA
  interaction score: -1.5
4H_GCN4
  interaction score: -1.33
4H535-AA
  interaction score: -1.08
4H_BCR
  interaction score: -1.7
4H58-AA
  interaction score: -0.465
P1-AA-1HGe-S
  interaction score: 1.86
4H2898-AA
  interaction score: 1.97
4H355-AA
  interaction score: -0.643
4H3705-AA
  interaction score: -0.91
P1-AA-1HGe-T
  interaction score: 2.06
P1-AA-1HGe-Y
  interaction score: 2.03
P1-AA-1HGe-Q
  interaction score: 2.33
GCN2_T
  interaction score: -1.81
P1-AA-1HGe-D
  interaction score: 2.05
4H3365-AA
  interaction score: -1.78
4H3651-AA
  interaction score: -1.22

## DENQELEKENEELERKIWELKKEIQELER [4H1193-bH]
4H1845-bH
  interaction score: -0.0802
4H3189-bH
  interaction score: -0.917
4H3907-bH
  interaction score: 0.0514
4H918-bH
  interaction score: -1.33
4H370-bH
  interaction score: -0.564
4H568-bH
  interaction score: -0.254
P8A-bS
  interaction score: 0.622
4H687-bH
  interaction score: -0.482
4H2697-bH
  interaction score: -0.317
4H2667-bH
  interaction score: -0.964
4H331-bH
  interaction score: -0.0475
4H1369-bH
  interaction score: -0.969
4H4001-bH
  interaction score: 0.425
4H3592-bH
  interaction score: 0.341
4H1446-bH
  interaction score: 0.131
4H1387-bH
  interaction score: -0.684
4H1406-bH
  interaction score: -0.835
4H2610-bH
  interaction score: -0.0229
4H967-bH
  interaction score: -0.174
4H3601-bH
  interaction score: 0
4H72-bH
  interaction score: -0.782
4H3606-bH
  interaction score: -0.559
4H3843-bH
  interaction score: 0.181
4H953-bH
  interaction score: -1.33
4H797-bH
  interaction score: -0.528
4H1193-bH
  interaction score: -0.399
4H883-bH
  interaction score: -0.574
4H2576-bH
  interaction score: 1.19
4H3782-bH
  interaction score: 1.32
4H4038-bH
  interaction score: 1.52
4H462-bH
  interaction score: -1.11
4H607-bH
  interaction score: -1.7
4H1328-bH
  interaction score: 0.732

## DEIAALEAKNAALKAKIAALKAENAALEG [Core_ININ-es_EKKE]
Core_ININ-es_KEEK
  interaction score: 2.15
